What was measured:
[1] = biological target: human OX40 extracellular domain fused to the Fc portion of human IgG1 (hOX40:hFc) (human); test: ELISA, OX40L-FLAG binding to coated hOX40:hFc
[2] = biological target: human OX40 (CD134), full length, expressed on cells (activated human T cells; EL4-OX40 and CHO-OX40 transfectants) (human) (UniProt P43489); test: flow cytometry titration on activated human T cells
[3] = biological target: human OX40 extracellular domain fused to the Fc portion of human IgG1 (hOX40:hFc) (human); test: ELISA, blocking of OX40L-FLAG binding to coated hOX40:hFc
[4] = biological target: human OX40 (CD134), full length, expressed on cells (activated human T cells; EL4-OX40 and CHO-OX40 transfectants) (human) (UniProt P43489); test: flow cytometry, OX40L-FLAG binding to activated human T cells
[5] = biological target: human OX40 (CD134), full length, expressed on cells (activated human T cells; EL4-OX40 and CHO-OX40 transfectants) (human) (UniProt P43489); test: flow cytometry, blocking of OX40L-FLAG binding to activated human T cells
[6] = biological target: recombinant human OX40:mFc fusion protein (Alexis Corporation) (human) (UniProt P43489); test: cross-blocking ELISA, hOX40:mFc pre-incubated with L106; competitor: coated 112V8
Chain of recombinant human OX40:mFc fusion protein (Alexis Corporation) (human) (P43489 29-214): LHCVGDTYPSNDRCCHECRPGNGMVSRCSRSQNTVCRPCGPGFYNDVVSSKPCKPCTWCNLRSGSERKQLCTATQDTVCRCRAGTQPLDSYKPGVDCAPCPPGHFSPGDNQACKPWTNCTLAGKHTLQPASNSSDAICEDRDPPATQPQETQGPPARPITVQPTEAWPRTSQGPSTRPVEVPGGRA

[7] = biological target: recombinant human OX40:mFc fusion protein (Alexis Corporation) (human) (UniProt P43489); test: cross-blocking ELISA, hOX40:mFc pre-incubated with L106; competitor: coated 112Y131

Chain of human OX40 (CD134), full length, expressed on cells (activated human T cells; EL4-OX40 and CHO-OX40 transfectants) (human) (P43489 29-277 limits assumed): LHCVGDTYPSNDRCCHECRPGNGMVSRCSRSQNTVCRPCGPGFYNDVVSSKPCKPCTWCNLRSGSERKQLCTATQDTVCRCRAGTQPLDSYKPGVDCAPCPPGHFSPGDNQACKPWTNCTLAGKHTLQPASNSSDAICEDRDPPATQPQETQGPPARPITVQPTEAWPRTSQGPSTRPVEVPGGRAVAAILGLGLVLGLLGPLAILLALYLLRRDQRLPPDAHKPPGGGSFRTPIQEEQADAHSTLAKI
Chain of human OX40 extracellular domain fused to the Fc portion of human IgG1 (hOX40:hFc) (human) (chain, as listed by the source limits assumed): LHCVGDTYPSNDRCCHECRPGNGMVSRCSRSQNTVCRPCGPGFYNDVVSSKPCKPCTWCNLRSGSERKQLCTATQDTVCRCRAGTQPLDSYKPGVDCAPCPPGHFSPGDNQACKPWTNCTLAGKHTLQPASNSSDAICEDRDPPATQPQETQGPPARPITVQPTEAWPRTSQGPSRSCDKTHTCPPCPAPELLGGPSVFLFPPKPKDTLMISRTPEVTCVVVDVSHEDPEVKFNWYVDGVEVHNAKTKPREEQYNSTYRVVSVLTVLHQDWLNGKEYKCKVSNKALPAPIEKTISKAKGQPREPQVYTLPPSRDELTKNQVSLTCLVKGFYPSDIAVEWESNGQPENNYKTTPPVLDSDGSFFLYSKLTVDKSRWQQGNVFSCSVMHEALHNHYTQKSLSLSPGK

In the case of “mouse anti-human OX40 antibody L106 (Becton Dickinson, catalog number 340420)”, the percent inhibition of OX40L binding [1] is reported as 95%, the BMAX Geo Mean (geometric mean fluorescence) [2] is reported as 52 and the Kd [2] is reported as 1 nM. It also gave an IC50 [3] of 0.982 µg/mL, a percent inhibition of OX40L binding [4] of 60% and an IC50 [5] of 60.9 µg/mL. The percent reduction of binding [6] was 10% and the percent reduction of binding [7] was 10%.
